Tested on: Bacillus subtilis
Experiment: cleaved RNA product abundance (RNA/gDNA barcode ratio) relative to median wild-type variant (ratio to wild type); higher = more accumulation of the downstream cleavage product
Procedure, shortened: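 Reporter mRNAs (truncated aprE or tetM) carrying barcoded, mutagenized RNase Y cleavage-site windows were made from oligos with a 9% error rate and integrated into the B. subtilis chromosome. Cultures grew in LB at 37°C from OD600 0.0003 to 0.3. Cleaved RNA was gel-selected, reverse transcribed and barcode-sequenced alongside genomic DNA barcodes, with UMI collapsing. Cleaved product abundance is the RNA:gDNA barcode ratio per variant, scaled to the median wild-type variant.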

[1] = experiment (reporter, strain, medium): exp 4a: truncated aprE reporter, strain BJT201 with 2% xylose (RNase J1 expressed), cleavage site: cggR-gapA (positions -7 to +36 mutated)
[2] = experiment (reporter, strain, medium): exp 8a: truncated aprE reporter, strain BJT201 with 2% xylose (RNase J1 expressed), cleavage site: glnRA (positions -5 to +31 mutated)
[3] = experiment (reporter, strain, medium): exp 2b: truncated aprE reporter, strain BJT200, cleavage site: cggR-gapA (positions -7 to +36 mutated)
[4] = experiment (reporter, strain, medium): exp 6: tetM reporter, strain 168, cleavage site: cggR-gapA (positions -7 to +36 mutated)

Row | Sequence | cleaved RNA product abundance [1] | cleaved RNA product abundance [2] | cleaved RNA product abundance [3] | also measured
1 | ACAGACGAAGGAGCCGCAAAGAAGATATTAAGGGATGAAAAATCCCTCAATATAAATATCTCTCACTTATTTAAA | 0.376 |  |  | 
2 | CGACATGTCCCGCTTCTTTCATTAATCCTTTAGCAACTGTTTTGCTATAAACATTTACCTTTTAAGAGGAGGAAT |  | 0.176 |  | 
3 | ACAGACGAAGGAGCCGCAAAGAAGTTATTAAAGAATGAATAATCCCTCAATATAAATATCTCTCACTTATTTAAA | 0.114 |  | 0.0737 | 
4 | ACAGACGAAGGAGCCGCAAAGAAGTTATTACTGGATGAATAATCCCTCAATATAAATATCTCTCACTTATTTAAA | 0.199 |  |  | 
5 | ACAGACGAAGGAGCCGCAAAGAAGTTATTAAGGGATGAATAATCCCTCAATAGAAATATCTCTCACTTATTTAAA | 0.111 |  | 0.164 | cleaved RNA product abundance [4]: 0.165
6 | ACAGACGAAGGAGCCGCAAAGAAGTTATTAACGGATAAATAATCCCTCAATATAAATATCTCTCACTTATTTAAA | 0.188 |  | 0.103 | 
7 | CGACATGTCCCGCTTCTTTCATTACTACGTTAGCAACTGTTTTGCTATATATATTTACCTTTTAAGAGGAGGAAT |  | 1.18 |  | 
8 | ACAGACGAAGGAGCCGCAAAGAAGTTATTAAGGGAAGAACAATCCCTCAATATAAATATCTCTCACTTATTTAAA | 0.73 |  |  | 
9 | CGACATGTCCCGCTTCTTTCATTAATCCGTTATCAAATGTTATGTTATATACATTTACCTTTTAAGAGGAGGAAT |  | 0.413 |  | 
10 | CGACATGTCCCGCTTCTTTCATTAATCCGTTAGCAACTGGTTTGCTATATACATTTACTTTTTAAGAGGAGGAAT |  | 0.918 |  | 
11 | CGACATGTCCCGCTTCTTTCATTAATCCGTTAGCAACTGTTTTGCTATATACATCTACCTTTTAAGAGGAGGAAT |  | 0.867 |  | 
12 | ACAGACGAAGGAGCCGCAAAGAAGTTATTAAGGGATCAATAATCTATCAATATAAATATCTCTCACTTATTTAAA | 0.209 |  |  | 
13 | ACAGACGAAGGAGCCGCAAAGAAGTTATTTAGGAATGAATAATCCCTCAATATAAATATCTCTCACTTATTTAAA | 0.127 |  |  | 
14 | ACAGACGAAGGAGCCGCAAAGAAGTTATTAACGGATGAATAATCCATCAATATAAATATCTCTCACTTATTTAAA | 0.233 |  | 0.138 | 
15 | CGACATGTCCCGCTTCTTTCATTAATCCGTTAGCAACTGTTTTGTTATAAACATTTACCTTTTAAGAGGAGGAAT |  | 0.322 |  | 
16 | ACAGACGAAGGAGCCGCAAAGAAGTTATTTAGGGATGAATAATCCCTCAATATAAATATCTCTCACTTATTTAAA | 0.799 |  | 0.704 | cleaved RNA product abundance [4]: 0.636
17 | ACAGACGAAGGAGCCGCAAAGAAGTTATTAAGGGATGAATAATCCTTCAATATAAGTATCTCTCACTTATTTAAA | 0.213 |  |  | 
18 | ACAGACGAAGGAGCCGCAAAAAAGTTATTAAGGGATTAATAATCCCTCAATATAAATATCTCTCACTTATTTAAA | 0.881 |  | 1.51 | 
19 | ACAGACGAAGGAGCCGCAAATAAGTTATTAAGGAATGAATAATCCCTCAATATAAATATCTCTCACTTATTTAAA | 0.129 |  | 0.0785 | 
20 | ACAGACGAAGGAGCCGCAAATAAGTTATTAAGGGATGATTAATCCCTCAATATAAATATCTCTCACTTATTTAAA | 0.697 |  | 0.783 | 
21 | ACAGACGAAGGAGCCGCAAAGAAGTTATTAAGGGATGAAGATTCCCTCAATATAAATATCTCTCACTTATTTAAA | 0.68 |  |  | 
22 | ACAGACGAAGGAGCCGCAAAGAAGTTTTTAAGGGATGAATAATCCCTTAATATAAATATCTCTCACTTATTTAAA | 0.798 |  | 0.844 | 
23 | CGACATGTCCCGCTTCTTTCATTAATCCGTTAGCAACTATTATGCTATATACATTTACCTTTTAAGAGGAGGAAT |  | 0.785 |  | 
24 | ACAGACGAAGGAGCCGCAAAGAAGTTATTAAGGGATGAATAATCCCTCAAAATAGATATCTCTCACTTATTTAAA | 0.322 |  |  | 
25 | ACAGACGAAGGAGCCGCAAAGAAGTTATTAAGGGAAGAATAATTCCTCAATATAAATATCTCTCACTTATTTAAA | 0.21 |  | 0.165 | 
26 | CGACATGTCCCGCTTCTTTCATTAATCTGTTAGCAACTGTTTTGCTATATACATTTACATTTTAAGAGGAGGAAT |  | 1.2 |  | 
27 | ACAGACGAAGGAGCCGCAAAGAAGTTATTAAGGTATGAATAATCCCTCAATATAACTATCTCTCACTTATTTAAA | 0.102 |  |  | 

Row | Sequence | cleaved RNA product abundance [1] | cleaved RNA product abundance [2] | cleaved RNA product abundance [3] | also measured
28 | ACAGACGAAGGAGCCGCAAAAAAGTTATTAAGGGATGAATAATCCCTTAATATAAATATCTCTCACTTATTTAAA | 0.394 |  |  | 
29 | CGACATGTCCCGCTTCTTTCATTAATCCGTTATCGACTGTTTTGCTATATACATTTACCTTTTAAGAGGAGGAAT |  | 0.257 |  | 
30 | ACAGACGAAGGAGCCGCATAGATGTTATTAAGGGATGAATAATCCCTCAATATAAATATCTCTCACTTATTTAAA | 1.38 |  |  | 
31 | ACAGACGAAGGAGCCGCAAAGAAGTTATTAAGGGATGAATAATCTCTCAAAATAAATATCTCTCACTTATTTAAA | 0.283 |  | 0.283 | 
32 | CGACATGTCCCGCTTCTTTCATTAATCCATTAGAAACTGTTTTGCTATATAGATTTACCTTTTAAGAGGAGGAAT |  | 0.302 |  | 
33 | ACAGACGAAGGAGCCGCAAAGAAGTTATTAAGGGATGAATGATCCTTCAATATAAATATCTCTCACTTATTTAAA | 0.258 |  |  | 
34 | CGACATGTCCCGCTTCTTTCATTAATCCGTTAGCAACTGTTTTGCAATATATATTTACCTTTTAAGAGGAGGAAT |  | 0.379 |  | 
35 | ACAGACGAAGGAGCCGCAAAGAAGTTATTAAAGGATGAATAATCCCTCAATATAAATATCTCTCACTTATTTAAA | 0.211 |  | 0.162 | cleaved RNA product abundance [4]: 0.242
36 | CGACATGTCCCGCTTCTTTCATTAATCCGTCAGCAACTGTTTAGCTATATACATTTACCTTTTAAGAGGAGGAAT |  | 0.305 |  | 
37 | ACAGACGAAGGAGCCGCAAAGAAGTTATTAAGGGATGAATAATACCTAAATATAAATATCTCTCACTTATTTAAA | 0.132 |  | 0.12 | 
38 | ACAGACGAAGGAGCCGCAAACAAGTTATTAAGGGATGAATAATCCCTCAATATAAATATCTCTCACTTATTTAAA | 0.738 |  | 0.78 | cleaved RNA product abundance [4]: 0.707
39 | ACAGACGAAGGAGCCGCACAGAAGTTATTAAGTGATGAATAATCCCTCAATATAAATATCTCTCACTTATTTAAA | 0.126 |  | 0.106 | 
40 | CGACATGTCCCGCTTCTTTCATTAATCCGTTAGCAACTGTTTTGCTATTTAAATTTACCTTTTAAGAGGAGGAAT |  | 0.144 |  | 
41 | ACAGACGAAGGAGCCGCAAAGAAGTTATTAAGGGATGAATAATCCCTCAATATAAAAATCACTCACTTATTTAAA | 1.16 |  |  | 
42 | CGACATGTCCCGCTTCTTTCATTAATCCGATATCAACTGTTTTGCTATATACATTTACCTTTTAAGAGGAGGAAT |  | 0.242 |  | 
43 | ACAGACGAAGGAGCCGCAAAAAAGTTATTAAGGGATGAATAATCCCTCAATATAAAAATCTCTCACTTATTTAAA | 0.82 |  | 1.08 | 
44 | CGACATGTCCCGCTTCTTTCATTAATCCGTTAGGAACTGTTTTGCTATATAGATTTACCTTTTAAGAGGAGGAAT |  | 0.191 |  | 
45 | ACAGACGAAGGAGCCGCAAAGAAGTTATTAAGGGATGAATAATCCCCTCAATATAAATATCTCTCACTTATTTAA | 0.364 |  | 0.181 | 
46 | CGACATGTCCCGCTTCTTTCATTAATCCGTTACCAACTGTTTAGCTATATACATTTACCTTTTAAGAGGAGGAAT |  | 0.208 |  | 
47 | ACAGACGAAGGAGCCGCAAAGAGGTAATTAAGGGATGAATAATCCCTCAATATAAATATCTCTCACTTATTTAAA | 0.176 |  |  | 
48 | CGACATGTCCCGCTTCTTTCATTACTCCGTTATGAACTGTTTTCCTATATACATTTACCTTTTAAGAGGAGGAAT |  | 0.316 |  | 
49 | ACAGACGAAGGAGCCGCAAAGAAGTTATCATGGGATGAATAATCCCTCAATATAAATATCTCTCACTTATTTAAA | 0.262 |  |  | 
50 | ACAGACGAAGGAGCCGCAAAGAAGTTATTATGGGATGAATAATCCCTCAATTTAAATATCTCTCACTTATTTAAA | 0.169 |  |  | 
51 | ACAGACGAAGGAGCCGCAACGAAGTTATTAAGGGATGAACAATCCCTCAATATAAATATCTCTCACTTATTTAAA | 0.631 |  |  | 
52 | ACAGACGAAGGAGCCGCAGAGAAGTTATAAAGGGATGAATAATCCCTCAATATAAATATCTCTCACTTATTTAAA | 0.295 |  |  | 
53 | CGACATGTCCCGCTTCTTTCATTAATCCGTTAGCAACTGTATTGCTATATACATGTACCTTTTAAGAGGAGGAAT |  | 0.783 |  | 
